Test results from patent US20250199010A1.

How the values were obtained:
[1] = molecular target: human EGFR-Fc mutant (L325V, S340A) (human) (UniProt P00533); test: SPR (Biacore), 37 °C
Human EGFR-Fc (human) [2] = molecular target: Human EGFR-Fc (human) (UniProt P00533); test: yeast surface display titration with human EGFR (panel Yeast display: HuL6-7D12)
Mouse EGFR-Fc (mouse) [3] = molecular target: Mouse EGFR-Fc (mouse) (UniProt Q01279); test: SPR (Biacore), 25 °C
Mouse EGFR-Fc (mouse) [4] = molecular target: Mouse EGFR-Fc (mouse) (UniProt Q01279); test: SPR, 25 °C
[5] = molecular target: human EGFR-Fc mutant (L325V, S340A) (human) (UniProt P00533); test: SPR, human EGFR-Fc (L325V, S340A)
Mouse EGFR-Fc (mouse) [6] = molecular target: Mouse EGFR-Fc (mouse) (UniProt Q01279); test: SPR, murine EGFR-Fc
Mouse EGFR-Fc (mouse) [7] = molecular target: Mouse EGFR-Fc (mouse) (UniProt Q01279); test: SPR, murine EGFR-Fc; bracket from the bars of 7D12 and 9G8 to this bar
Human EGFR-Fc (human) [8] = molecular target: Human EGFR-Fc (human) (UniProt P00533); test: SPR (Biacore), 37 °C

Substance: 7D12 (VHH)
- Kd [1]: 210 nM
- Kd (Human EGFR-Fc (human) [2]): 2.1 nM
- Kd (Mouse EGFR-Fc (mouse) [3]): 7200 nM
- Kd (Mouse EGFR-Fc (mouse) [4]): 7200 nM

Substance: 7D12-(AP)12-9G8
- Kd [5]: 0.6 nM
- Kd (Mouse EGFR-Fc (mouse) [6]): 192 nM
- k' (Mouse EGFR-Fc (mouse) [7]): 950000

Substance: 7D12-(AP)12-VSG-[-AA]9G8
- Kd [5]: 0.04 nM
- Kd (Mouse EGFR-Fc (mouse) [6]): 0.7 nM

Substance: 7D12-(E4K4)5-9G8
- Kd [5]: 2 nM
- Kd (Mouse EGFR-Fc (mouse) [6]): 621 nM

Substance: 7D12-(EAAAK)8-9G8
- Kd (Mouse EGFR-Fc (mouse) [6]): 194 nM

Substance: 7D12-(EAAAK)8-VSG-[-AA]9G8
- Kd (Mouse EGFR-Fc (mouse) [6]): 1.2 nM

Substance: 7D12-(GGGS)3-9G8
- Kd (Mouse EGFR-Fc (mouse) [6]): 162 nM

Substance: 7D12-FFH-(EAAAK)6-GGG-[-AA]9G8
- Kd (Mouse EGFR-Fc (mouse) [6]): 8.8 nM

Substance: 7D12-KGR-(EAAAK)8-AGG-[-AA]9G8
- Kd (Mouse EGFR-Fc (mouse) [6]): 17 nM

Substance: 7D12-SSV-(E4K4)4-GPG-[-AA]9G8
- Kd (Mouse EGFR-Fc (mouse) [6]): 3.1 nM

Substance: 7D12-WMV-(GGGS)6-VTG-[-AA]9G8
- Kd [5]: 0.04 nM
- Kd (Mouse EGFR-Fc (mouse) [6]): 1.2 nM

Substance: 9G8 (VHH)
- Kd [1]: 13 nM
- Kd (Human EGFR-Fc (human) [8]): 3.8 nM
